One molecule from publication PMC10398670 (EMBO Reports, 2023) can be followed below.

One experiment addresses T1, GST::MIRO‐1 (C. elegans, UniProt Q94263 1-601).
T1 sequence (looked up): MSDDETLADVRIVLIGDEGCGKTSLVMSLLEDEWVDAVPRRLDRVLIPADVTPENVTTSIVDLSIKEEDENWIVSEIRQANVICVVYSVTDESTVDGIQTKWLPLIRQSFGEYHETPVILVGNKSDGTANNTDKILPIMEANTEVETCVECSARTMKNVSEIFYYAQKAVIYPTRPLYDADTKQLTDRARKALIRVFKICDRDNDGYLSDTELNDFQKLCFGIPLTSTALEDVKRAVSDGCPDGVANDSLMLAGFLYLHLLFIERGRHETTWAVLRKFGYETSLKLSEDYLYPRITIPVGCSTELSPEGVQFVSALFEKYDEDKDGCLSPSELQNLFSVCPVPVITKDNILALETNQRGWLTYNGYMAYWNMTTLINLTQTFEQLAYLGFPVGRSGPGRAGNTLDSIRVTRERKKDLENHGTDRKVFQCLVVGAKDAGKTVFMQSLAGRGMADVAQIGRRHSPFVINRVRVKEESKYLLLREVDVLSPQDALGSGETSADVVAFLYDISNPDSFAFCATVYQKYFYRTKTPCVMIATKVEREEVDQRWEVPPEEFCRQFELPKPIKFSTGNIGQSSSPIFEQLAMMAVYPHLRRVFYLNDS
The experiment is described as follows: pull-down.

Another experiment addresses T2, MIRO‐1::His (C. elegans, UniProt Q94263 1-601).
T2 sequence (looked up): T1 sequence (looked up)
Put plainly: cross-linking.

B1: VDAC‐1::His (natural protein, C. elegans, UniProt Q21752 1-283, looked up)
chain: MAPPTFADLGKSAKDLFNKGYNFGFLKIDSTTRAGDNKEVEFKSAASHNIGSGKLGGNLDVKYKIPQYGITLTEKWNTENQLGTVIEVNEQFGRGLKVTLDSLYAPHAGKRSGKVKLDWALPTARVTADVGVTSAPVINAAGVFSRDGWLIGAAATFDSSSNKLAATSLAFGHSTPQYTLHSFVINSTDFGASLYHKVASNVEVGTQLGWKVGGNGADYALATKYAPSRDLTVRAKVNSSSQVAVAATHSLSPALKLTLSTQFNLAANDAHKFGLGLEFDPSN
Take B1: the binding result in the experiment with GST::MIRO‐1 and with MIRO‐1::His was “binds” each time.
